The values that follow come from publication PMC6886185, “eIF4A2 drives repression of translation at initiation by Ccr4-Not through purine-rich motifs in the 5′UTR”.

One series addresses eIF4A1 (UniProt P60842 1-406). Kind of series: fluorescence anisotropy; AMP-PNP; 20 mM Hepes/KOH pH 7.5, 100 (mM) KCl, 1 mM MgCl2, 1 mM AMP-PNP, 1 mM TCEP, 0.1% DMSO, +/-50 uM silvestrol (10 uM in Fig 4a legend), 60 min, 25 C; numeric Kd of. Particulars: protein: recombinant; tags: SUMO tag cleaved; label: FAM; blunt. For orientation: In fluorescence polarisation assays a small probe gives low polarisation when free and higher when bound to something large.

The target in series [1] is T1, eIF4A2 (UniProt Q14240 1-407). The description is as above. As to conditions: protein: recombinant; tags: SUMO tag cleaved; label: FAM; blunt.
In series [2] the target is T1, eIF4A2. Description: EMSA; AMP-PNP; bound even under high molar excess of (CAA)6CA; 20 mM Hepes/KOH pH 7.5, 100 (mM) KCl, 1 mM MgCl2, 1 mM AMP-PNP, 1 mM TCEP, 0.1% DMSO, +/-50 uM silvestrol (10 uM in Fig 4a legend), 60 min, 25 C; numeric Kd of. Particulars: protein: recombinant; tags: SUMO tag cleaved; label: Dy780; single strand. For orientation: In EMSA bound probe runs differently from free probe, usually more slowly.

Series [3] addresses T1, eIF4A2. Kind of series: fluorescence anisotropy; 1 mM AMP-PNP, 1 mM Mg2+; 20 mM Hepes/KOH pH 7.5, 100 (mM) KCl, 1 mM MgCl2, 1 mM AMP-PNP, 1 mM TCEP, 0.1% DMSO, +/-50 uM silvestrol (10 uM in Fig 4a legend), 60 min, 25 C; numeric Kd of. Particulars: protein: recombinant; tags: SUMO tag cleaved; label: 5' FAM; single strand, unstructured.
For series [4], the target named is T1, eIF4A2. Description: competition; 20-fold excess; readily displaces pre-bound FAM-(CAA)6CA; 20 mM Hepes/KOH pH 7.5, 100 (mM) KCl, 1 mM MgCl2, 1 mM AMP-PNP, 1 mM TCEP, 0.1% DMSO, +/-50 uM silvestrol (10 uM in Fig 4a legend), 60 min, 25 C; numeric Kd of. Particulars: protein: recombinant; tags: SUMO tag cleaved; label: none; single strand.

T1 sequence (Q14240 whole entry): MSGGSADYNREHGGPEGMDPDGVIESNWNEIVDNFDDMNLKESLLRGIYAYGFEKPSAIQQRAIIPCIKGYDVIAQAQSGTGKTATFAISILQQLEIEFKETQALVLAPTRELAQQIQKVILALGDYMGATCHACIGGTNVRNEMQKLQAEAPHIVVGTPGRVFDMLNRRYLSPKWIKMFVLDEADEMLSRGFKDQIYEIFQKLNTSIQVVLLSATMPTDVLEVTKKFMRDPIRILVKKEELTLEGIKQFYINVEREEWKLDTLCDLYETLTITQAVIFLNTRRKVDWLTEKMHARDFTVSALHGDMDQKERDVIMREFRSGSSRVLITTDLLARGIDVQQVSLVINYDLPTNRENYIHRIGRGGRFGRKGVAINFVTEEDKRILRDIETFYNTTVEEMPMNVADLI
eIF4A1, sequence (P60842 whole entry): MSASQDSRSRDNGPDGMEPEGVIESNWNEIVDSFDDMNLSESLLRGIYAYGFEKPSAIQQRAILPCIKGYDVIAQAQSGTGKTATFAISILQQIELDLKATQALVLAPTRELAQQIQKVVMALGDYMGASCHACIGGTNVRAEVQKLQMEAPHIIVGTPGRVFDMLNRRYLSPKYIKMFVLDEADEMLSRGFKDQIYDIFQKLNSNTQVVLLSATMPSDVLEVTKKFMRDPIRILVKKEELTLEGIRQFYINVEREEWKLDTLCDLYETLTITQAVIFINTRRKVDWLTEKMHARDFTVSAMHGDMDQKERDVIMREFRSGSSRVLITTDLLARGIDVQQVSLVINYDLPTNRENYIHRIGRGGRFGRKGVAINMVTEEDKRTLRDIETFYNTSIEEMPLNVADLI

B1: (AG)10:(CU)10 dsRNA (dsRNA)
RNA 1: AGAGAGAGAGAGAGAGAGAG
RNA 2: CUCUCUCUCUCUCUCUCUCU
With B1, the binding result with eIF4A1 and with eIF4A2 [1] was “no binding” each time.

B2: Dy780-(AG)10 ssRNA (ssRNA)
RNA: AGAGAGAGAGAGAGAGAGAG
Consider B2, for which, in the series with eIF4A2 [2], the binding result is reported as “binds”.

B3: (AG)10 ssRNA (ssRNA)
RNA: AGAGAGAGAGAGAGAGAGAG
Regarding B3, the binding result with eIF4A2 [3] is on record as “binds”.

B4: (AG)10 unlabelled competitor (ssRNA)
RNA: AGAGAGAGAGAGAGAGAGAG
For the molecule B4, in the series with eIF4A2 [4], the binding result is given as “binds”.
